According to patent publication EP4721730A1, “PHARMACEUTICAL COMPOSITION COMPRISING SUSTAINED-RELEASE MICROSPHERE COMPRISING CAGRILINTIDE OR PHARMACEUTICALLY ACCEPTABLE SALT THEREOF AND PREPARATION METHOD THEREFOR” (G2GBIO, Inc., priority 2023, dated 2024):

Assay: Pharmacokinetics of a single-dose subcutaneous administration using SD rats (concentration of cagrilintide in blood)
Format: in vivo
Details: s.c. 1.2 mg/head
Method: In order to evaluate a potential of the microsphere according to the present invention as a sustained-release therapeutic agent, the concentration of the cagrilintide in rat blood was measured by the following method.
Specifically, the microsphere was measured so that a dosage of the cagrilintide becomes 1.2 mg/head (API raw material solution, Example 5-6) or 3.6 mg/head (Comparative Examples 1 to 2, Examples 1-1 to 1-3, Example 5-1), dispersed in 0.5 mL of a suspension, and then subcutaneously injected into SD rats. 0.25 to 0.5 mL of blood was collected at prescheduled times and the concentration of the cagrilintide in blood was measured using HPLC.

cagrilintide [API raw material solution]
cumulative blood concentration (day 0, cagrilintide): 0.0% | cumulative blood concentration (day 0.042, cagrilintide): 0.2% | cumulative blood concentration (day 0.250, cagrilintide): 4.5% | cumulative blood concentration (day 1, cagrilintide): 35.2% | cumulative blood concentration (day 4, cagrilintide): 91.1% | cumulative blood concentration (day 7, cagrilintide): 100.0%
